According to patent US20170267764A1 (INNATE PHARMA, published 2017):

T1: human MICA allele MICA*007 (human, UniProt Q29983 24-297)
T1 construct: Expressed on transfected C1R cells; also called MICA*07; C1R-MICA*007
T1 chain: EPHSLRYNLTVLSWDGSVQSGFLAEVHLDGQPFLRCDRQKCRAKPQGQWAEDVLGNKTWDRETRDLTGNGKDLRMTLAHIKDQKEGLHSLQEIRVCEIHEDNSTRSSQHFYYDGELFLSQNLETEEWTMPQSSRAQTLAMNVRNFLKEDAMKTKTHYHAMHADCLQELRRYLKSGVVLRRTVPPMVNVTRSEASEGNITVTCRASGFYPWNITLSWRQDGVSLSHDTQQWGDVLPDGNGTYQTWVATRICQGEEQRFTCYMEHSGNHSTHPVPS

T2: human MICA allele MICA*004 (human, UniProt Q29983 24-297)
T2 construct: Expressed on transfected C1R cells; also called MICA*04; C1R-MICA*004
T2 chain: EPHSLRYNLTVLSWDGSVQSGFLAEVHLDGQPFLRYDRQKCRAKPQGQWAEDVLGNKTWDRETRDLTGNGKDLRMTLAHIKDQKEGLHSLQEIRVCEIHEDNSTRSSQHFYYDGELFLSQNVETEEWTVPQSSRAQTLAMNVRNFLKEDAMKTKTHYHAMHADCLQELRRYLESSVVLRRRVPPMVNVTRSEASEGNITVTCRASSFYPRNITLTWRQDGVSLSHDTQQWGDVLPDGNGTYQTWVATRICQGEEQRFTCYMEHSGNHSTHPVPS

T3: human MICA allele MICA*001 (human, UniProt Q29983 24-297)
T3 construct: Expressed on transfected C1R cells; also called MICA*01; C1R-MICA*001
T3 sequence: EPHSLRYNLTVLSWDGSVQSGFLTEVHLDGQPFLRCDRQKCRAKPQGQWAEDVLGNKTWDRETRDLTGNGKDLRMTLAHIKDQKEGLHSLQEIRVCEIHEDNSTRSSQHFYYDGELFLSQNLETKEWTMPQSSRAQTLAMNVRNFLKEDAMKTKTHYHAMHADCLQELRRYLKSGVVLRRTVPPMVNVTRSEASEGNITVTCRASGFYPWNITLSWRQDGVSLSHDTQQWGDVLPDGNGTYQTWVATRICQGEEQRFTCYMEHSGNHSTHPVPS

T4: human MICA allele MICA*008 (human, UniProt Q29983 24-297)
T4 construct: Expressed on transfected C1R cells; also called MICA*08; C1R-MICA*008
T4 chain: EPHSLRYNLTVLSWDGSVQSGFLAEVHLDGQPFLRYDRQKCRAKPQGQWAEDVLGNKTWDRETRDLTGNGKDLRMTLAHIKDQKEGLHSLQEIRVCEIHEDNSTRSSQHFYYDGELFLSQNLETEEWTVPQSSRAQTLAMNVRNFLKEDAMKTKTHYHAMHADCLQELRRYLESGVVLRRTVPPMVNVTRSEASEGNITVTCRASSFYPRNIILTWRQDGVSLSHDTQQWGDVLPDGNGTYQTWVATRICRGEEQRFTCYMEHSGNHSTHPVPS


What was measured:
[1] = biological target: T1, human MICA allele MICA*007; test: flow cytometry, C1R-MICA*007 transfectant cells
Experimental: (§1) The binding of the antibodies in Table 2 of Example 1 were tested for binding to MICA-expressing C1R transfectant cells (ATCC reference CRL-1993™) transfected with RSV.5neo vectors (GenBank (NCBI) under Accession number M83237), as described in Salih et al. (2003) Blood 102(4): […], referred to as C1R-MICA*001, C1R-MICA*004, C1R-MICA*007 and C1R-MICA*008. Binding was analyzed by flow cytometry.
(§2) Cells were harvested and stained in PBS 1×/BSA 0.2%/EDTA 2 mM buffer during 30 minutes at 4° C. using a dose-range of the anti-MICA mAbs. After two washes in staining buffer, cells were stained for 30 min at 4° C. with mouse anti-human IgG1-PE monoclonal antibodies (1/11). After two washes, stainings were acquired on a BD FACS Canto II and analyzed using the FlowJo software.

[2] = biological target: T2, human MICA allele MICA*004; test: flow cytometry, C1R-MICA*004 transfectant cells
Experimental: as §1, §2

[3] = biological target: T3, human MICA allele MICA*001; test: flow cytometry, C1R-MICA*001 transfectant cells
Experimental: as §1, §2

[4] = biological target: T4, human MICA allele MICA*008; test: flow cytometry, C1R-MICA*008 transfectant cells
Experimental: as §1, §2

[5] = biological target: T3, human MICA allele MICA*001; test: flow cytometry, C1R-MICA*001 transfectant cells; reference: parental antibody
Experimental: as §1, §2

[6] = biological target: T4, human MICA allele MICA*008; test: cell-based or functional assay
[7] = biological target: T3, human MICA allele MICA*001; test: cell-based or functional assay

EC50 [1] | EC50 [2] | EC50 [3] | EC50 [4] | fold improvement in affinity compared to the parental antibody [5] | EC50 (read off the curve), ADCC % specific lysis [panel C1R MICA*008] [6] | EC50 (read off the curve), ADCC % specific lysis [panel C1R MICA*001] [7] | Binder
0.0875 µg/mL | 0.063 µg/mL | 0.316 µg/mL | 0.0859 µg/mL | – | – | – | mAb4 (antibody, V domains shown, Produced in CHO cells as human IgG1 with huCk constant domain) VH: QVQLQESGPGLVKPSETLSLTCTVSGYSITSDYAWNWIRQPPGKGLEWMGFVSYSGTTKYNPSLKSRVTISRDTSKNQFSLKLSSVTAADTAVYYCARGYGFDYWGQGTTVTVSS VL: EIVLTQSPATLSLSPGERATLSCSATSSISSIYFHWYQQKPGQAPRLLIYRTSNLASGIPARFSGSGSGTDYTLTISSLEPEDFAVYYCQQGTTIPFTFGQGTKLEIK
0.0498 µg/mL | 0.0631 µg/mL | 0.307 µg/mL | 0.144 µg/mL | – | – | – | mAb10 (antibody, V domains shown, Produced in CHO cells as human IgG1 with huCk constant domain) VH: QVQLQESGPGLVKPSETLSLTCTVSGYSITSDYAWNWIRQPPGKGLEWMGFVSYSGTTKYNPSLKSRITISRDTSENQFSLKLSSVTAADTAVYYCARGYGFDYWGQGTTVTVSS VL: EIVLTQSPATLSLSPGERATLSCSATSSISSIYFHWYQQKPGQAPRLLIYRTSNLASGIPARFSGSGSGTDYTLTISSLEPEDFAVYYCQQGTTIPFTFGQGTKLEIK
0.0502 µg/mL | 0.0381 µg/mL | 0.151 µg/mL | 0.0699 µg/mL | ~3 fold | – | – | mAb2 (antibody, V domains shown, Produced in CHO cells as human IgG1 with huCk constant domain) VH: QVQLQESGPGLVKPSETLSLTCTVSGYSITSDYAWNWIRQPPGKGLEWIGFVSYSGTTKYNPSLKSRVTISRDTSKNQFSLKLSSVTAADTAVYYCARGYGFDYWGQGTTVTVSS VL: EIVLTQSPATLSLSPGERATLSCSATSSISSIYFHWYQQKPGQAPRLLIYRTSNLASGIPARFSGSGSGTSYTLTISSLEPEDFAVYYCQQGTTIPFTFGQGTKLEIK
0.033 µg/mL | 0.0417 µg/mL | 0.184 µg/mL | 0.0612 µg/mL | 2.4 fold | ~0.0002 µg/mL | ~0.003 µg/mL | mAb1 (antibody, V domains shown, Produced in CHO cells as human IgG1 with huCk constant domain; also called anti-MICA mAb1; anti-MICA antibody mAb1) VH: QVQLQESGPGLVKPSETLSLTCTVSGYSITSDYAWNWIRQPPGKGLEWIGFVSYSGTTKYNPSLKSRVTISRDTSKNQFSLKLSSVTAADTAVYYCARGYGFDYWGQGTTVTVSS VL: EIVLTQSPATLSLSPGERATLSCSATSSISSIYFHWYQQKPGQAPRLLIYRTSNLASGIPARFSGSGSGTDYTLTISSLEPEDFAVYYCQQGTTIPFTFGQGTKLEIK
0.0668 µg/mL | 0.0616 µg/mL | 0.288 µg/mL | 0.0871 µg/mL | – | – | – | mAb7 (antibody, V domains shown, Produced in CHO cells as human IgG1 with huCk constant domain) VH: QVQLQESGPGLVKPSETLSLTCTVSGYSITSDYAWNWIRQPPGKGLEWMGFVSYSGTTKYNPSLKSRVTISRDTSENQFSLKLSSVTAADTAVYYCARGYGFDYWGQGTTVTVSS VL: EIVLTQSPATLSLSPGERATLSCSATSSISSIYFHWYQQKPGQAPRLLIYRTSNLASGIPARFSGSGSGTDYTLTISSLEPEDFAVYYCQQGTTIPFTFGQGTKLEIK
0.0519 µg/mL | 0.0438 µg/mL | 0.318 µg/mL | 0.0515 µg/mL | – | – | – | mAb9 (antibody, V domains shown, Produced in CHO cells as human IgG1 with huCk constant domain) VH: QVQLQESGPGLVKPSETLSLTCTVSGYSITSDYAWNWIRQPPGKGLEWMGFVSYSGTTKYNPSLKSRVTISRDTSENQFSLKLSSVTAADTAVYYCARGYGFDYWGQGTTVTVSS VL: EIVLTQSPATLSLSPGERATLSCSATSSISSIYFHWYQQKPGQAPRLLIYRTSNLASGIPARFSGSGSGTDYTLTISSLEPEDVAVYYCQQGTTIPFTFGQGTKLEIK
0.0462 µg/mL | 0.0481 µg/mL | 0.191 µg/mL | 0.0551 µg/mL | – | – | – | mAb8 (antibody, V domains shown, Produced in CHO cells as human IgG1 with huCk constant domain) VH: QVQLQESGPGLVKPSETLSLTCTVSGYSITSDYAWNWIRQPPGKGLEWMGFVSYSGTTKYNPSLKSRVTISRDTSENQFSLKLSSVTAADTAVYYCARGYGFDYWGQGTTVTVSS VL: EIVLTQSPATLSLSPGERATLSCSATSSISSIYFHWYQQKPGQAPRLLIYRTSNLASGIPARFSGSGSGTSYTLTISSLEPEDFAVYYCQQGTTIPFTFGQGTKLEIK
0.0718 µg/mL | 0.0838 µg/mL | 0.407 µg/mL | 0.0953 µg/mL | – | – | – | mAb6 (antibody, V domains shown, Produced in CHO cells as human IgG1 with huCk constant domain) VH: QVQLQESGPGLVKPSETLSLTCTVSGYSITSDYAWNWIRQPPGKGLEWMGFVSYSGTTKYNPSLKSRVTISRDTSKNQFSLKLSSVTAADTAVYYCARGYGFDYWGQGTTVTVSS VL: EIVLTQSPATLSLSPGERATLSCSATSSISSIYFHWYQQKPGQAPRLLIYRTSNLASGIPARFSGSGSGTDYTLTISSLEPEDVAVYYCQQGTTIPFTFGQGTKLEIK
0.086 µg/mL | 0.0672 µg/mL | 0.453 µg/mL | 0.0642 µg/mL | – | – | – | mAb12 (antibody, V domains shown, Produced in CHO cells as human IgG1 with huCk constant domain) VH: QVQLQESGPGLVKPSETLSLTCTVSGYSITSDYAWNWIRQPPGKGLEWMGFVSYSGTTKYNPSLKSRITISRDTSENQFSLKLSSVTAADTAVYYCARGYGFDYWGQGTTVTVSS VL: EIVLTQSPATLSLSPGERATLSCSATSSISSIYFHWYQQKPGQAPRLLIYRTSNLASGIPARFSGSGSGTDYTLTISSLEPEDVAVYYCQQGTTIPFTFGQGTKLEIK
0.0513 µg/mL | 0.0614 µg/mL | 0.32 µg/mL | 0.0789 µg/mL | – | – | – | mAb11 (antibody, V domains shown, Produced in CHO cells as human IgG1 with huCk constant domain) VH: QVQLQESGPGLVKPSETLSLTCTVSGYSITSDYAWNWIRQPPGKGLEWMGFVSYSGTTKYNPSLKSRITISRDTSENQFSLKLSSVTAADTAVYYCARGYGFDYWGQGTTVTVSS VL: EIVLTQSPATLSLSPGERATLSCSATSSISSIYFHWYQQKPGQAPRLLIYRTSNLASGIPARFSGSGSGTSYTLTISSLEPEDFAVYYCQQGTTIPFTFGQGTKLEIK
0.0493 µg/mL | 0.0762 µg/mL | 0.318 µg/mL | 0.0958 µg/mL | – | – | – | mAb5 (antibody, V domains shown, Produced in CHO cells as human IgG1 with huCk constant domain) VH: QVQLQESGPGLVKPSETLSLTCTVSGYSITSDYAWNWIRQPPGKGLEWMGFVSYSGTTKYNPSLKSRVTISRDTSKNQFSLKLSSVTAADTAVYYCARGYGFDYWGQGTTVTVSS VL: EIVLTQSPATLSLSPGERATLSCSATSSISSIYFHWYQQKPGQAPRLLIYRTSNLASGIPARFSGSGSGTSYTLTISSLEPEDFAVYYCQQGTTIPFTFGQGTKLEIK
0.0612 µg/mL | 0.0608 µg/mL | 0.265 µg/mL | 0.0822 µg/mL | – | – | – | mAb3 (antibody, V domains shown, Produced in CHO cells as human IgG1 with huCk constant domain) VH: QVQLQESGPGLVKPSETLSLTCTVSGYSITSDYAWNWIRQPPGKGLEWIGFVSYSGTTKYNPSLKSRVTISRDTSKNQFSLKLSSVTAADTAVYYCARGYGFDYWGQGTTVTVSS VL: EIVLTQSPATLSLSPGERATLSCSATSSISSIYFHWYQQKPGQAPRLLIYRTSNLASGIPARFSGSGSGTDYTLTISSLEPEDVAVYYCQQGTTIPFTFGQGTKLEIK
